# Results reported in patent US20230406885A1, “CYCLIC PEPTIDES FOR TRAPPING INTERLEUKIN-1 BETA” (MERCK SHARP & DOHME LLC, priority 2022, published 2023).
# *1 amine or outer side, *2 acyl side, *3 side chain or, on linkers, in order; H or OH if unused. [ ]: non-standard residue; d: D form. 3AzaPhe4AcPip = (S)-3-(6-(4-acetylpiperazin-1-yl)pyridin-3-yl)-2-aminopropanoic acid, CC(=O)N1CCN(c2ccc(C[C@H](N[*:1])C(=O)[*:2])cn2)CC1; Trp(4-Cl)(βS-Me) = C[C@@H](c1c[nH]c2cccc(Cl)c12)[C@H](N)C(=O)O; Pro(trans-4-NH2) = O=C([C@@H]1C[C@@H](N[*:3])CN1[*:1])[*:2]; Bip(4'-COOH) = N[C@@H](Cc1ccc(-c2ccc(C(=O)O)cc2)cc1)C(=O)O; Phe(3-CH2NH2) = O=C([C@H](Cc1cccc(CN[*:3])c1)N[*:1])[*:2]; 1Nal(3S-Me) = C[C@@H](c1cccc2ccccc12)[C@H](N)C(=O)O; Phe(4-COOH) = N[C@@H](Cc1ccc(C(=O)O)cc1)C(=O)O; Phe(4-CH2NH2) = NCc1ccc(C[C@H](N)C(=O)O)cc1; Phe(3-NH2) = Nc1cccc(C[C@H](N)C(=O)O)c1; Phe(4-NH2) = Nc1ccc(C[C@H](N)C(=O)O)cc1; hTyr = N[C@@H](CCc1ccc(O)cc1)C(=O)O; dDab = NCC[C@@H](N)C(=O)O; Orn = NCCC[C@H](N)C(=O)O; dNMeA = CN[C@H](C)C(=O)O; Dap = NC[C@H](N)C(=O)O
# B1: SEQ ID NO: 56 (peptide)
# peptide: cyclo([Bip(4'-COOH)]W[Phe(4-COOH)]G[Pro(trans-4-NH2)][Trp(4-Cl)(βS-Me)]N[dNMeA]G[Bip(4'-COOH)]WG[dDab][hTyr])
# SMILES: C[C@@H]1C(=O)NCC(=O)N[C@@H](Cc2ccc(-c3ccc(C(=O)O)cc3)cc2)C(=O)N[C@@H](Cc2c[nH]c3ccccc23)C(=O)NCC(=O)N[C@H](CCN)C(=O)N[C@@H](CCc2ccc(O)cc2)C(=O)N[C@@H](Cc2ccc(-c3ccc(C(=O)O)cc3)cc2)C(=O)N[C@@H](Cc2c[nH]c3ccccc23)C(=O)N[C@@H](Cc2ccc(C(=O)O)cc2)C(=O)NCC(=O)N2C[C@H](N)C[C@H]2C(=O)N[C@@H]([C@@H](C)c2c[nH]c3cccc(Cl)c23)C(=O)N[C@@H](CC(N)=O)C(=O)N1C
# B2: SEQ ID NO: 5 (peptide)
# peptide: cyclo([3AzaPhe4AcPip]W[Phe(4-COOH)]G[Pro(trans-4-NH2)][1Nal(3S-Me)]D[dNMeA]G[Bip(4'-COOH)]W[Dap][dA][hTyr])
# SMILES: CC(=O)N1CCN(c2ccc(C[C@@H]3NC(=O)[C@H](CCc4ccc(O)cc4)NC(=O)[C@@H](C)NC(=O)[C@H](CN)NC(=O)[C@H](Cc4c[nH]c5ccccc45)NC(=O)[C@H](Cc4ccc(-c5ccc(C(=O)O)cc5)cc4)NC(=O)CNC(=O)[C@@H](C)N(C)C(=O)[C@H](CC(=O)O)NC(=O)[C@H]([C@@H](C)c4cccc5ccccc45)NC(=O)[C@@H]4C[C@@H](N)CN4C(=O)CNC(=O)[C@H](Cc4ccc(C(=O)O)cc4)NC(=O)[C@H](Cc4c[nH]c5ccccc45)NC3=O)cn2)CC1
# B3: SEQ ID NO: 53 (peptide)
# peptide: cyclo([Bip(4'-COOH)]W[Phe(4-COOH)]G[Pro(trans-4-NH2)][Trp(4-Cl)(βS-Me)]D[dNMeA]G[Bip(4'-COOH)]W[Dap][dA][hTyr])
# SMILES: C[C@@H]1C(=O)NCC(=O)N[C@@H](Cc2ccc(-c3ccc(C(=O)O)cc3)cc2)C(=O)N[C@@H](Cc2c[nH]c3ccccc23)C(=O)N[C@@H](CN)C(=O)N[C@H](C)C(=O)N[C@@H](CCc2ccc(O)cc2)C(=O)N[C@@H](Cc2ccc(-c3ccc(C(=O)O)cc3)cc2)C(=O)N[C@@H](Cc2c[nH]c3ccccc23)C(=O)N[C@@H](Cc2ccc(C(=O)O)cc2)C(=O)NCC(=O)N2C[C@H](N)C[C@H]2C(=O)N[C@@H]([C@@H](C)c2c[nH]c3cccc(Cl)c23)C(=O)N[C@@H](CC(=O)O)C(=O)N1C
# B4: SEQ ID NO: 48 (peptide)
# peptide: cyclo([Bip(4'-COOH)]W[Phe(4-COOH)]G[Pro(trans-4-NH2)][Trp(4-Cl)(βS-Me)]D[dNMeA]G[Bip(4'-COOH)][Phe(3-CH2NH2)]S[dA][hTyr])
# SMILES: C[C@@H]1C(=O)NCC(=O)N[C@@H](Cc2ccc(-c3ccc(C(=O)O)cc3)cc2)C(=O)N[C@@H](Cc2cccc(CN)c2)C(=O)N[C@@H](CO)C(=O)N[C@H](C)C(=O)N[C@@H](CCc2ccc(O)cc2)C(=O)N[C@@H](Cc2ccc(-c3ccc(C(=O)O)cc3)cc2)C(=O)N[C@@H](Cc2c[nH]c3ccccc23)C(=O)N[C@@H](Cc2ccc(C(=O)O)cc2)C(=O)NCC(=O)N2C[C@H](N)C[C@H]2C(=O)N[C@@H]([C@@H](C)c2c[nH]c3cccc(Cl)c23)C(=O)N[C@@H](CC(=O)O)C(=O)N1C
# B5: SEQ ID NO: 50 (peptide)
# peptide: cyclo([Bip(4'-COOH)]W[Phe(4-COOH)]G[Pro(trans-4-NH2)][Trp(4-Cl)(βS-Me)]D[dNMeA]G[Bip(4'-COOH)][Phe(3-NH2)]S[dA][hTyr])
# SMILES: C[C@@H]1C(=O)NCC(=O)N[C@@H](Cc2ccc(-c3ccc(C(=O)O)cc3)cc2)C(=O)N[C@@H](Cc2cccc(N)c2)C(=O)N[C@@H](CO)C(=O)N[C@H](C)C(=O)N[C@@H](CCc2ccc(O)cc2)C(=O)N[C@@H](Cc2ccc(-c3ccc(C(=O)O)cc3)cc2)C(=O)N[C@@H](Cc2c[nH]c3ccccc23)C(=O)N[C@@H](Cc2ccc(C(=O)O)cc2)C(=O)NCC(=O)N2C[C@H](N)C[C@H]2C(=O)N[C@@H]([C@@H](C)c2c[nH]c3cccc(Cl)c23)C(=O)N[C@@H](CC(=O)O)C(=O)N1C
# B6: SEQ ID NO: 55 (peptide)
# peptide: cyclo([Bip(4'-COOH)]W[Phe(4-COOH)]G[Pro(trans-4-NH2)][Trp(4-Cl)(βS-Me)]E[dNMeA]G[Bip(4'-COOH)]WG[dDab][hTyr])
# SMILES: C[C@@H]1C(=O)NCC(=O)N[C@@H](Cc2ccc(-c3ccc(C(=O)O)cc3)cc2)C(=O)N[C@@H](Cc2c[nH]c3ccccc23)C(=O)NCC(=O)N[C@H](CCN)C(=O)N[C@@H](CCc2ccc(O)cc2)C(=O)N[C@@H](Cc2ccc(-c3ccc(C(=O)O)cc3)cc2)C(=O)N[C@@H](Cc2c[nH]c3ccccc23)C(=O)N[C@@H](Cc2ccc(C(=O)O)cc2)C(=O)NCC(=O)N2C[C@H](N)C[C@H]2C(=O)N[C@@H]([C@@H](C)c2c[nH]c3cccc(Cl)c23)C(=O)N[C@@H](CCC(=O)O)C(=O)N1C
# B7: SEQ ID NO: 47 (peptide)
# peptide: cyclo([Bip(4'-COOH)]W[Phe(4-COOH)]G[Pro(trans-4-NH2)][Trp(4-Cl)(βS-Me)]D[dNMeA]G[Bip(4'-COOH)]KS[dS][hTyr])
# SMILES: C[C@@H]1C(=O)NCC(=O)N[C@@H](Cc2ccc(-c3ccc(C(=O)O)cc3)cc2)C(=O)N[C@@H](CCCCN)C(=O)N[C@@H](CO)C(=O)N[C@H](CO)C(=O)N[C@@H](CCc2ccc(O)cc2)C(=O)N[C@@H](Cc2ccc(-c3ccc(C(=O)O)cc3)cc2)C(=O)N[C@@H](Cc2c[nH]c3ccccc23)C(=O)N[C@@H](Cc2ccc(C(=O)O)cc2)C(=O)NCC(=O)N2C[C@H](N)C[C@H]2C(=O)N[C@@H]([C@@H](C)c2c[nH]c3cccc(Cl)c23)C(=O)N[C@@H](CC(=O)O)C(=O)N1C
# B8: SEQ ID NO: 57 (peptide)
# peptide: cyclo([Bip(4'-COOH)]W[Phe(4-COOH)]G[Pro(trans-4-NH2)][Trp(4-Cl)(βS-Me)]Q[dNMeA]G[Bip(4'-COOH)]WG[dDab][hTyr])
# SMILES: C[C@@H]1C(=O)NCC(=O)N[C@@H](Cc2ccc(-c3ccc(C(=O)O)cc3)cc2)C(=O)N[C@@H](Cc2c[nH]c3ccccc23)C(=O)NCC(=O)N[C@H](CCN)C(=O)N[C@@H](CCc2ccc(O)cc2)C(=O)N[C@@H](Cc2ccc(-c3ccc(C(=O)O)cc3)cc2)C(=O)N[C@@H](Cc2c[nH]c3ccccc23)C(=O)N[C@@H](Cc2ccc(C(=O)O)cc2)C(=O)NCC(=O)N2C[C@H](N)C[C@H]2C(=O)N[C@@H]([C@@H](C)c2c[nH]c3cccc(Cl)c23)C(=O)N[C@@H](CCC(N)=O)C(=O)N1C
# B9: SEQ ID NO: 54 (peptide)
# peptide: cyclo([Bip(4'-COOH)]W[Phe(4-COOH)]G[Pro(trans-4-NH2)][Trp(4-Cl)(βS-Me)]D[dNMeA]G[Bip(4'-COOH)]WG[dDab][hTyr])
# SMILES: C[C@@H]1C(=O)NCC(=O)N[C@@H](Cc2ccc(-c3ccc(C(=O)O)cc3)cc2)C(=O)N[C@@H](Cc2c[nH]c3ccccc23)C(=O)NCC(=O)N[C@H](CCN)C(=O)N[C@@H](CCc2ccc(O)cc2)C(=O)N[C@@H](Cc2ccc(-c3ccc(C(=O)O)cc3)cc2)C(=O)N[C@@H](Cc2c[nH]c3ccccc23)C(=O)N[C@@H](Cc2ccc(C(=O)O)cc2)C(=O)NCC(=O)N2C[C@H](N)C[C@H]2C(=O)N[C@@H]([C@@H](C)c2c[nH]c3cccc(Cl)c23)C(=O)N[C@@H](CC(=O)O)C(=O)N1C
# B10: SEQ ID NO: 51 (peptide)
# peptide: cyclo([Bip(4'-COOH)]W[Phe(4-COOH)]G[Pro(trans-4-NH2)][Trp(4-Cl)(βS-Me)]D[dNMeA]G[Bip(4'-COOH)][Phe(4-CH2NH2)]S[dA][hTyr])
# SMILES: C[C@@H]1C(=O)NCC(=O)N[C@@H](Cc2ccc(-c3ccc(C(=O)O)cc3)cc2)C(=O)N[C@@H](Cc2ccc(CN)cc2)C(=O)N[C@@H](CO)C(=O)N[C@H](C)C(=O)N[C@@H](CCc2ccc(O)cc2)C(=O)N[C@@H](Cc2ccc(-c3ccc(C(=O)O)cc3)cc2)C(=O)N[C@@H](Cc2c[nH]c3ccccc23)C(=O)N[C@@H](Cc2ccc(C(=O)O)cc2)C(=O)NCC(=O)N2C[C@H](N)C[C@H]2C(=O)N[C@@H]([C@@H](C)c2c[nH]c3cccc(Cl)c23)C(=O)N[C@@H](CC(=O)O)C(=O)N1C
# B11: SEQ ID NO: 52 (peptide)
# peptide: cyclo([Bip(4'-COOH)]W[Phe(4-COOH)]G[Pro(trans-4-NH2)][Trp(4-Cl)(βS-Me)]D[dNMeA]G[Bip(4'-COOH)][Phe(4-NH2)]S[dA][hTyr])
# SMILES: C[C@@H]1C(=O)NCC(=O)N[C@@H](Cc2ccc(-c3ccc(C(=O)O)cc3)cc2)C(=O)N[C@@H](Cc2ccc(N)cc2)C(=O)N[C@@H](CO)C(=O)N[C@H](C)C(=O)N[C@@H](CCc2ccc(O)cc2)C(=O)N[C@@H](Cc2ccc(-c3ccc(C(=O)O)cc3)cc2)C(=O)N[C@@H](Cc2c[nH]c3ccccc23)C(=O)N[C@@H](Cc2ccc(C(=O)O)cc2)C(=O)NCC(=O)N2C[C@H](N)C[C@H]2C(=O)N[C@@H]([C@@H](C)c2c[nH]c3cccc(Cl)c23)C(=O)N[C@@H](CC(=O)O)C(=O)N1C
# B12: SEQ ID NO: 49 (peptide)
# peptide: cyclo([Bip(4'-COOH)]W[Phe(4-COOH)]G[Pro(trans-4-NH2)][Trp(4-Cl)(βS-Me)]D[dNMeA]G[Bip(4'-COOH)][Orn]S[dA][hTyr])
# SMILES: C[C@@H]1C(=O)NCC(=O)N[C@@H](Cc2ccc(-c3ccc(C(=O)O)cc3)cc2)C(=O)N[C@@H](CCCN)C(=O)N[C@@H](CO)C(=O)N[C@H](C)C(=O)N[C@@H](CCc2ccc(O)cc2)C(=O)N[C@@H](Cc2ccc(-c3ccc(C(=O)O)cc3)cc2)C(=O)N[C@@H](Cc2c[nH]c3ccccc23)C(=O)N[C@@H](Cc2ccc(C(=O)O)cc2)C(=O)NCC(=O)N2C[C@H](N)C[C@H]2C(=O)N[C@@H]([C@@H](C)c2c[nH]c3cccc(Cl)c23)C(=O)N[C@@H](CC(=O)O)C(=O)N1C
# Target: Recombinant human IL-1β (BioLegend 579404) (human, UniProt P01584 117-269)
# Test: cell-based or functional assay
row,MRC5 IC50,Binder
1,0.0207 nM,B1
2,0.674 nM,B2
3,0.0418 nM,B3
4,0.041 nM,B4
5,0.52 nM,B5
6,0.0493 nM,B6
7,0.123 nM,B7
8,0.0873 nM,B8
9,0.0692 nM,B9
10,0.32 nM,B10
11,0.454 nM,B11
12,0.402 nM,B12
